According to a protein production outcome set (Wang et al. 2014):

Assay: label from the status in PepcDB records
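Further: failed if final PepcDB status was selected cloned or expressed and not failed if soluble or beyond.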

| Sequence | protein production |
| --- | --- |
| MNPIKPPFTLNQYFAAWFVHVFTASAACIGVFSLYKIYQHDYVFALWLMAITVFIDAVDGSLARLVHVKSVLPKIDGALLDNIVDYLNYVITPCFFLLVKPGMLPADYVVPITAAITITSAYQFCQDDAKTPDHFFKGFPCYWNITVFYMYIFNTSMIVNTVLLSLFCVLIFIPVKYVYPSRLDYLTESRVLKILMHCCSALYGISSFCLLVNYPETNKLWVSLSLGYVGMYLFLSFYRTYYPMFKAKITANNKD | failed |
| MNPTLSAAVTAPSAGTQDAEAEIRDLAQSLTLEQQVQLLTGADVWSTHAIPEIGLSRVVMSDGPAGVRGEDFDERHDSVSLPSSSALSATWSVETARNYGQVLGQEARRKGVHAVLGPTINLHRSPLGGRHFECMSEDPRLTATMAAGYVAGVQSMGVGATPKHYLANEAETERFTADSVVDERPLRELYLAAFEDAITEARAWLVMSSYNSINGTTASENKLLETPLSTEWGFDGVVVSDWTGVRSIDAANAHQDLEMPGPVGHWGPKLLAAVNEGRVSREAILEKVTRILRLAARVGSLEGFEPAVTHLPTELNGAAVAREVAVRGAVLVRNKGLLPLDAKALGSVAVIGHNADEARTQGGGSATVMPKYTVSPLEGLRKALPEGVKVTYARGAKVAEGIQAFPRTSLHNPVSNVPGIRVTFLAEDGTEISGEDRLASHLIWFGIGIPDGAASIRMEADWTAETAGVHHLGVGTVGRIRFVLDGTEVFNSELEDDTEVLGAALFDPPKTVHAIDTTAGQSIRIEAEYQLPKEQVIPFTAILLGEETVVAEPQAEIDAAVEAARASDVAVVVVGTNAAIESEGFDRKDLDLPGYQNQLVKAVAAANPRTVVVVNSGSPVLMPWLDTVDAVLLGWFGGQEFGSAVADILLGVEEPGGRLPTTWPSALDDVPVLNTTPTDGKVVYSEGIHIGYRAWLKQQAEGGAAPALPFGFGLGYTTFEFGKAHAPQAVTAGKDLVVHVPVKNTGTRTGREVVQVYVERTESAVERPVRWLAGYAGAHLAPAGTESVEIRIPAKAFAHYDGGWQFEQGTFRLLVGRHAADDFQSLDIELR | failed |
| MNQEVRFSRLEPEQRKALLIEATLACLKRHGFQGASVRKICAEAGVSVGLINHHYDGKDALVAEAYLAVTGRVMRLLRGAIDTAPGGARPRLSAFFEASFSAELLDPQLLDAWLAFWGAVGSIEAIGRVHDHSYGEYRALLVGVLRQLAEEGGWADFDAELAAISLSALLDGLWLESGLNPATFTPRQGVQICEAWVDGLEAGAHRRFRRAMEAC | not failed |
| MNQHLSISPSVSRPVWHQAIPLLLLEAALVLTWSSGFIGARFSLDYAPPLLVVFWRCVVVTLLLLPFVARQLVTLPPTLLLKNTGIGLLAMTGYVAGVTQGIALGVPAGLAALFADLLPMGMALLAALVLGQRLVWQIWAGLVVGLIGVVLVTHSALEWGNAPLWAYGLPLLGMFSLAIATLWQKHSTTSQPMKLLPNLWLQYFISSFAFAIIQGTQGGLAPIASSGFALSVAWTVGLATLGGYGLYWVCLRRAKATRVASVLYLSPPVTMLWAWAMFDEPLSWQIALGMVVSGVGVWMVIRAEARQVAS | failed |
| MNQMQGRLVAGRYRLGEAIGSGGMGRVWRAHDEVLHRTVAIKELTAALYVSESDQAILLARTRGEARAAARINHSAVVTVHDVLEHDGRPWIVMELVEGRSLADAVKEEERVDPREAARVGLWVLRALRAAHTAGVLHRDVKPGNVLLADDGRVLLTDFGIAQIEGDSTITRTGEVVGSVDYLAPERVRGHDPGPSSDLWALGATLYTAVEGRSPFRRTSPLTTMQAVVEEEATEPRYAGALAPVISALLRKDPAERPDATEAEHLLAQAAEGRRPDAAQAYVPTTRYEGPPRAGDTAVQGMPAGGSGATPYPQAGGSGATPYPPTTGPTGAGPAPTGHTRGGYTQVGHTEGGYTAPGYAPAPAVGGAAPGRARRVRMRTLALVVAVAALIGAGTAVVLHQRDEGGSSAGADPTQGPTGSAAPSPSPSASATTGKGPGGSVPADWTRRDDPLGFSLYLPENWQRRDFDGDSGELRQIDYTPDGGNHVLRISVDTAPDYNDPYAHQQDLDAQLLQRLVDYRRVKLERAGYRDRDSARWEYTWTALAKDTEFPGPRRAVSQMYMSRDGVEYALNMTGPAGDWPTTQRRFKAVLQGWQEETG | failed |
| MNQQEVAADYLKYFDDMLAKAADLTKDIKDADKKTVVYGNVSKFSQPHVIAEWWIDKAGGISVTSEAMTKANKESLTYTLEDLLKWNPDVMFVASAAEKKEVLADARLGEITAVKNGAIYIVPRIAHVWGNRTTEQPLTIMWAMNKLYPEIVTLEHHHHHH | not failed |
| MNQVEMTEFPVGKPQEALYGVASTPDGALWFTLAKGNAIGRLSPDGAVSRFPLPHTDGQPTTITCGPDGRPWFTLSSANAIGRLAPDGALRMFELPRPASRPFGIAGGHDGCLWFAEMAGDRIGRITIDGDIEEYDLPVKGGYPSCMAAGRDGLMWFTLNQAGAVGSISATAAPRIFPLGAADAAPVGIASDAQGALWIAQAGNGAIVRFDAGGRITEFPLHSRAARPHAIAADAAGNLWFTEWGANRIGRISEAGDLAGYELAAPGSEPHGIAIDPHGCVWAALETGRLVRLQASPRDLEHHHHHH | not failed |
| MNQVHHAAQQGFSQAAELYQHARPNYPQAVVEWLKQDLRLNKYSKVVDLGAGTGKFLPYLKQVTTDIVAVEPVHEMLQQLQTAHPDIKVLQAQSTNIPLESESIDAVLCAQSFHWFANIESLNEIYQLLKPSGHLGLIWNQRDENIDWVKQIADMLMTFEGDTPRYHSGEWKKAFEHQHLFKLEHARVFSHVHTGTVEQVVSQRLLSTSFIAAMPEAQQQQLKQQFEHIVFECTGKQPTDQIDFPYITYAYDFKKI | failed |
| MNQVVEFLKIFIPLFIVIDPFGSLVLFTSMTYNFNESEKLRATKDAVFYGGIILVLFALAGEYIIYFFGISIEALEMAGGIILLLMAVEMIMEGNRPKSSGSEIVDYDIGIVPFATPMLAGPGAISLVIILMKGPIIAKIYTIISIAIIFAMVYIFFKWSSVVSKFIGAKVMKAISRIFGLLLAGFAIQYFIDAIVALSLLK | failed |
| MNREELFDVTVIGGGPAGLYSAFYSGLREMKTKIIEFQPQLGGKIHVYPEKMIWDIGGLLPVTGEKLIEQLVQQGLTFQPEVVLNTKIESIIRNKDGIFTLKTSTGEEHFSKTVIVATGSGILNPQKLSIEGAERFEVSNLNYTVKSLKRFKNKTVIISGGGNSAIDWANELEPIAKKVYLTYRKEELSGHEAQVKQLMNSSAECFFNTSITTLIAGDNHEAIEYVELTNHETGEVSQLAIDEVIINHGYERDITLLENSELDVAIIDNYYIAGNANSESSVDGLYAAGDILKHEGKLHLIAGAFQDAGNAVNKAKQFIQPDASEYGMVSSHNEVFKKRNRELIKQMMK | failed |
| MNREKLMKMANTVRTGGKGTVRRKKKAVHKTNTTDDKRLQSTLKRIGVNSIPAIEEVNIFKDDVVIQFINPKVQASIAANTWVVSGSPQTKKLQDILPQIISQLGPDNMDNLKKLAEQFQKQASGEGNAASATIQEEDDDDVPELVGETFETAAEEKAPAAAASS | failed |
| MNRFIGYIQVACCCLLLCASCVRDGMDEDCNSYVRFVYDYNLEYIDLFHKQATKMNLYVFDEKGVFVTELKEESGAFAPDYLMTLPGAMAGRRYIFVAWSGLYGESYDKVTLTPGVSTLEDLEVSVNNLKTRIGGGVVDRELHLLWHGKQTEVSPQYNNDITTVSLLKNTKKFRIIMQMLDDSSIHVDDYDFRIISPNGRYNHENGLLGDETDEKVEYTAYHTEDDPETGAIAELNTLRLMTDTENRLVITHKSSGNVILDIPLNKYLNALRLQQYADIPLQEYLDRADKHGIILFFKGMDGNGNYISVDVQINGWLIRKQEVDGV | failed |
| MNRMMALVMAGGRGTRLAIDCEKPLLEVAGRPMIDHVLEALESATGVDGIIVVTSPHTPMTEDHVRGRHPIFRASGGGYVEDLREVLSHLEESYHEPLLVINSDLPLVRPSTIDWIISSYHSCPEPAMCVAVPDDLCRRHGLDFSGSLDGLVPCGVNILMSKNRVQEQRILEASMLELAVNINSCRDLKVLEKILGEIDGREEAHKRGREVLELEHHHHHH | not failed |
| MNRNKIAALIFAVSTVCVVSAHSENAYATEHKNSNQLEENNQTRSVKKGQVINVSTNLRIRKSPNTSSDVIGYLTNGEIFNIDGKEGSWYKINANGKVGYIHGDYVKEVTGNSNSSSNNSGSNSNLDTSLAGKKGTVVNVSTSLRVRQSPSTSSSVVGSLRGGQTFEIKGKSGSWYYINANGLTGYIHGDYVQVGENSSNNGGQSSGNNGQSSENNSGMDTSLAGKTGKVVNVSTSLRIRQSPSTSSSVVGSLSAGQTFKINGKNGAWYNIDAQGTKGHVHGDYVQVLSGNESSNSGSNNNQSGSQNNNLDESYNGKAGKVVNVTTNLRLRSQPSTSSSVLAYLLPNERFTLQGKTSSGWFKVNYNGKIGYLHEDYVKIVSSDEGANGNTGGSTGGGQVNQSKYEQVLSIMKSQIGSPYIYGGAGETLTSSLLSSLRRTFPDHAARGFYDIPSNYLNGNYRAFDCSGLMQWSFRQAGISLGRTTWDQINNGYEVSPSNAKPGDLLFFSNLGHVGMYIGNGQWIEAPNKGKFVSITSVPWSKIGRARRVL | failed |
| MNRNLLYMILRLIFVIVATVAGFYVLLYMSGLIYPFIIAFAFAYLINPVVNFLNQKLQFPRALAVLVSLILVFGAIVGLVTYLVTEAISATTYLLQLVTVKFPDIVTFAQQFALNHIMPLYDDLISKFNHLGEPQRYTITQNIQNLGTEATTQMKELLTAIISGLTNFISALPTTLTVLVFILLATFFISYDWHRLAQKARKLLPNRVHGYGKTIFVDLRKALFGFVKAQLTLVSMTTVIVLIGLLILRVPYAITIAIITGVVDLLPYLGTGAVFVPWVIYVFFTGDTAFAIGLLILYIVVIVQRQIMEPKVLSSNIGLDPLATLVALFVGFKLFGFLGLIIGPVTLVLLNTLHKANVFHDLWKYIKGSPSK | failed |
| MNRNRQLSDPSRFSGMAAGFFMATLGAVLFSGKAIVVKFTYRYGIDAVTLIAFRMLFAMPFFAAVAWWQARRAARGELPVLSWRERGQLCALGLLGYYLSSFLDFLGLRHITAGLERLILFLSPSLVVLLSAWWLKRPVTRRQWGAMLLSYVGVALVLSHDLSQSGAGADVLTGSFFVFCSALSYSVYLICSGELVERVGATRLVAYAMLVSCVASLIQFFLIHPASVLVQPAAVYGYSVIHATVNTVLPVFMLMWAVALVGAPTASLLGMVGPVSVLFLAAWFLDEPITVWQLAGTALVLAGVFVLAGRRRPARP | failed |
| MNRREVRCAFSASKAARAQLLLRGKVRLEPLPTRPRTVLGLDASYSAKDGVGVGAAVLISLETLEPVDCRVYISRVCIPYIPGLLAFRELAVMAPAAAALSAEADVVMVDGHGIAHPRRFGIASHVGVILERPSIGVAKKKLVGTLVEGPGGMYVVQDGERLAIVLGTRPREVYVSPGHRITLEEAASIARATIRPGGWMPEPTRLADVISKALKTIIGGQSLINSALASLCRVKLGPRLEELERPLRRAGLEVELEHHHHHH | failed |
| MNRVIACIDSSPCINAIAEAAAWVARQTKRELVLLQILDYYPASYHLGEISGVIGFESNAMLLKELAELEQKQSDLAIDYSNNLLKHISDMILEKYGIQSTKIQEKGDFLEQSFNVLRETDFVIIGKVGERAAEKNKPIGSNVENFIRGANCTVMTVGEHFKIPTRFIFAYEYSPTCLNLMQRIAQSDLLKTLQCHLLYVGDHPEVLKDPEEFLKNAGLDVITVYRYGDVAENILEYQKELGIQMIVLGAFSHSKIHQFFLGSIATSIFRNATVPLLVAK | failed |
| MNSAVGAELFMGDDGVSLRPGLGGTESVLESWRYIMGKLRVGRFLISSRVNGPGRRFVIWFQGCPIRCRGCLNPEFHDEDGGHLIETARLVDMIRDLRDEIEGVTFTGGEPLAQAMELVKLAGAVKSMGLTVVCFTGYEMDEILKGNIEGGLELLEFVDVLIDGPYIEEKSAPLLWRGSTNQDVYFLTERYAEFRDRVMACSEMEAELKVGADGVYMTGIFDVEFWEELRRRLGDGSLEHHHHHH | failed |
